These results are taken from patent US20060121510.

The test system of this data set is calmodulin (3′,5′-cyclic nucleotide phosphodiesterase activator, Sigma).

As for “3′,5′-cyclic nucleotide phosphodiesterase (activator deficient from bovine brain, Sigma)”, the “hydrolysis of 3′,5′-cyclic AMP to 5′-AMP during a 40 min preincubation (enzyme activity)” value is listed as “more than 90% is destroyed in a similar reaction containing calmodulin”.
